The results in this text go back to paper doi:10.1101/2021.07.07.451531 (bioRxiv, 2021).

Assay [1] has as its target biotinylated iC3b. The assay can be described thus: SPR. For orientation: Surface plasmon resonance follows binding to a sensor surface in real time, without labels.
Assay [2] addresses αM subunit of the αMβ2 headpiece (human, UniProt P11215). The assay is described as follows: crystal structure.
The target in assay [3] is recombinant human αI domain of αMβ2 (human, UniProt P11215). The assay can be described thus: SEC.
Chain of recombinant human αI domain of αMβ2 (P11215 148-336): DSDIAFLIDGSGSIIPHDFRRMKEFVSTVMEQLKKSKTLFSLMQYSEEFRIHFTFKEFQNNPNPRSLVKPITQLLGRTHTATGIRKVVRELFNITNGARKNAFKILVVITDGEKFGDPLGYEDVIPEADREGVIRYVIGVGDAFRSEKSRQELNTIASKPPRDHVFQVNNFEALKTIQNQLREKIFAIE

Chain of αM subunit of the αMβ2 headpiece (P11215 17-770): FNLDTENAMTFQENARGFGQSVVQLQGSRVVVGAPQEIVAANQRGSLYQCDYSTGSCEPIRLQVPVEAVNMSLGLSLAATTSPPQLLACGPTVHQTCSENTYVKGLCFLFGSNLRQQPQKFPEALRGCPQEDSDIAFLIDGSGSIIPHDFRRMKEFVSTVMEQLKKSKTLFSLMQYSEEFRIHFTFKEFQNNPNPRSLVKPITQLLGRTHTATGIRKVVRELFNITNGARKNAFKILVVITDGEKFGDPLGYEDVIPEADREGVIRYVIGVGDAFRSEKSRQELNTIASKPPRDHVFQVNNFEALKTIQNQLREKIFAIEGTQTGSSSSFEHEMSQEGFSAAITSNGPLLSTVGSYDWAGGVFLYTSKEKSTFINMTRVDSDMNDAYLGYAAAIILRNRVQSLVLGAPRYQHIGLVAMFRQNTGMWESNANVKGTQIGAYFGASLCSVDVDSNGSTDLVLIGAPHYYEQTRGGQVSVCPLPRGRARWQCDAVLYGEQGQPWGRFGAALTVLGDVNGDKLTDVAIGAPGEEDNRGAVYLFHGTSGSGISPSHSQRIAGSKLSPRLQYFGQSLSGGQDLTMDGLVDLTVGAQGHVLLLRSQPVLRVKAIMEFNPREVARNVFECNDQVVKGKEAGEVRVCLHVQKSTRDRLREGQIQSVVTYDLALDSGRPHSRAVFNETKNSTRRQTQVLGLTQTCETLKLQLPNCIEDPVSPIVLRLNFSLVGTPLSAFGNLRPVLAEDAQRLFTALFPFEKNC

As usually defined, the Kd is the free concentration of one partner at which half of the binding sites on the other are occupied at equilibrium, for simple one-to-one binding. The molecule “αMβ2 headpiece (from UniProt P05107 23-482) (complex)” returned an equilibrium dissociation constant (Kd) in assay [1] of 30 nM. This lies in the double-digit nanomolar range.

B1: hCD11bNb1 (VHH)
VHH: QVQLVETGGGLVQAGGSLRLSCAASGNINSFNAMGWFRQAPGKQRELVAAITFGGRTNYADSVKGRFTISRDNTKGSVYLQMNSLKPEDTAVYYCAASENNLLTGVWHYWGRGTQVTVSS
Turning to B1, the binding result in assay [2] and in assay [3] was “binds” in each case.
